Data on two substances can be found in PMC9355967.

The target of experiment [1] is FLAG-tagged full-length AFDN (mouse) (UniProt Q9QZQ1). Put plainly: co-IP; HEK 293T cells co-transfected; anti-FLAG IP on Protein G sepharose, Western blot with anti-GFP or antibodies to the endogenous protein; TX100 buffer (20 mM Tris pH 7.5, 150 mM NaCl, 1% NP-40, 1% Triton X-100, 5 mM MgCl2 for GTPases); also after FastAP phosphatase treatment of lysates; with or without co-expressed GTPases (densitometry in Fig. 4g). In general terms: Immunoblotting shows a protein as a band on a membrane.
Sequence of FLAG-tagged full-length AFDN (mouse) (Q9QZQ1 whole entry): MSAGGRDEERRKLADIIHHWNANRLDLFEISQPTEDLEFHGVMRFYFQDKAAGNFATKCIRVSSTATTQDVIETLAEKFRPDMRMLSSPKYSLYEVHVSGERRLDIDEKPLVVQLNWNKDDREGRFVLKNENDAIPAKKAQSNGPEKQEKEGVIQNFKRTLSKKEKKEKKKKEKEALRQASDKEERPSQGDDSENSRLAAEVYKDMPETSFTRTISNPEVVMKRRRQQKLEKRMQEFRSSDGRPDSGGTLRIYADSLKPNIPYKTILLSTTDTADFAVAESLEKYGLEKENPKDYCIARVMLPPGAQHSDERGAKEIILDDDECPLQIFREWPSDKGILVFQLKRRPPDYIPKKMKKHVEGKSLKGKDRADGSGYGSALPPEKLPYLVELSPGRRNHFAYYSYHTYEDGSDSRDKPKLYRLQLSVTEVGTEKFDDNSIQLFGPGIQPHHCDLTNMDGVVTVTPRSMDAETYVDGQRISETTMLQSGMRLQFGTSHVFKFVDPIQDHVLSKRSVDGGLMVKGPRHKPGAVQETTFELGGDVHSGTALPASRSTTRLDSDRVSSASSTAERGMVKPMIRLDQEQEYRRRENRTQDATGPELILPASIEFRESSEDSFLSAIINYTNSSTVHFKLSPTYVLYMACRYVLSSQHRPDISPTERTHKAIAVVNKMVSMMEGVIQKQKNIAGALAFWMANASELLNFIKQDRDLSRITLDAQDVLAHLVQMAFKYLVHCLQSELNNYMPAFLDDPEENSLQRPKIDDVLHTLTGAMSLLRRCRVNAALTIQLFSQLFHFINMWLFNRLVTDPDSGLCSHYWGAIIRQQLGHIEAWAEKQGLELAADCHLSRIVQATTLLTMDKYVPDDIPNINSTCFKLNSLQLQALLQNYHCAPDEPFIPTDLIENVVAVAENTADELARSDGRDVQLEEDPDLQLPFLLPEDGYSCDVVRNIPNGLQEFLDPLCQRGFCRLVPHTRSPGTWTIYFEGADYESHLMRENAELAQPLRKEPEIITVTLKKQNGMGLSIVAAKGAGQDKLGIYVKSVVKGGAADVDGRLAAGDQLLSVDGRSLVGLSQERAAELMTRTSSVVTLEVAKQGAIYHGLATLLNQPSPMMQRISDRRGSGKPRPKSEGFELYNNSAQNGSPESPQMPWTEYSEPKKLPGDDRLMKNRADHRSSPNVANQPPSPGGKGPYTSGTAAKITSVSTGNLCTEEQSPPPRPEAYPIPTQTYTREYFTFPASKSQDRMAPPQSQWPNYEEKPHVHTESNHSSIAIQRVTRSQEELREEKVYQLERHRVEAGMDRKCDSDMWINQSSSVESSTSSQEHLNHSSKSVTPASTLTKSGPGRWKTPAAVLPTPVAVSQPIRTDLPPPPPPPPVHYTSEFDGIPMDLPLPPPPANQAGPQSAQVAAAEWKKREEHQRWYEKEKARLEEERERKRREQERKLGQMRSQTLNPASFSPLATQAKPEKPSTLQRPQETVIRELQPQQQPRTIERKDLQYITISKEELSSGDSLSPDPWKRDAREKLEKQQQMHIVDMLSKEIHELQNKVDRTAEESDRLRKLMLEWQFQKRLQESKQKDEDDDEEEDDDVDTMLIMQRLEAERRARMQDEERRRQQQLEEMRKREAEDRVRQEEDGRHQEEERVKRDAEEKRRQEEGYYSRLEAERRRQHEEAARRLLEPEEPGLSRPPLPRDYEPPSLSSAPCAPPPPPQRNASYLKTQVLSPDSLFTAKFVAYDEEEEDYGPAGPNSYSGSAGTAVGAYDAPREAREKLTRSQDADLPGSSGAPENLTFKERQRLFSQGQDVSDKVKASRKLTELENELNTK

For experiment [2], the target named is purified AFDN FHA domain Δex9 (mouse). Put plainly: ITC; MicroCal ITC200, 25 °C, 20 mM Tris-HCl pH 7.5, 150 mM NaCl, 1 mM DTT. Background: Isothermal titration calorimetry measures the heat released or taken up as one component is titrated into another.

Sequence of purified SCRIB PDZ1 domain (718-820) (Q14160 718-820): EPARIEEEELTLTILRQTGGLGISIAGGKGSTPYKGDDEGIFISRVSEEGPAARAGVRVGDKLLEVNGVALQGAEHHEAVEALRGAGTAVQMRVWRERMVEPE

In experiment [1], “EGFP-tagged full-length SCRIB (from UniProt Q14160 1-1655) (natural protein)” registered a fold increase of SCRIB co-precipitated with AFDN, KRAS-G12V co-expressed, against wild-type KRAS of 8 fold; a fold increase of SCRIB co-precipitated with AFDN, RAP1B-G12V co-expressed, against wild-type KRAS of 1.7 fold; a fold increase of SCRIB co-precipitated with AFDN, RAP2C-G12V co-expressed, against wild-type KRAS of 2.6 fold.
The Kd is the equilibrium constant for the complex coming apart. A low value points to higher affinity. As for “purified SCRIB PDZ1 domain (718-820) (from UniProt Q14160 718-820) (domain or fragment)”, the Kd in experiment [2] came out at 22.9 µM.
